From the supplement of paper PMC9732359
± gives the uncertainty stated by the source.

assay: protein stability index of a GFP-peptide fusion (yeast GPS) (PSI 1-4); higher = more stable; sorted into four equal gates, so the index is relative within each strain; details: doa10∆
In short: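 Sequencing reads from sorted gates were used to score each peptide. The library consisted of tiled 17-residue yeast protein peptides fused downstream of GFP on a Cherry-expressing plasmid, pooled and carried in yeast. Mid-log cultures in leucine-free medium were split into four equal gates by GFP/Cherry ratio, and each gate's plasmids were PCR-amplified and Illumina-sequenced. The protein stability index adds up, over all gates, the read frequency multiplied by the gate number.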

| Sequence | protein stability index |
| --- | --- |
| FPTRLGQGYRKVGIWPY [YJL039C/NUP192] | 3.49 ± 0.17 |
| FPWLNAIKYRPTSVKLL [POP3] | 2.1 ± 0.038 |
| FQAHEITSFLLSKMENV [NAS6] | 1.79 ± 0.079 |
| FQFKLLQSNSKLASTLE [SMC4] | 2.29 ± 0.056 |
| FQHADNSSMRYGYWFDC [AAR2] | 3.06 ± 0.11 |
| FQIPTNLDAAAAGTSQA [RPC10] | 2.44 ± 0.14 |
| FRFQGGIIVAVDSRATA [PRE2] | 1.45 ± 0.063 |
| FRRDFLLREYDILSQIL [YJL039C/NUP192] | 1.81 ± 0.12 |
| FRTVKEMVKDRGYFITQ [RPB5] | 2.52 ± 0.069 |
| FSDKVNALWILVDLVSH [ITC1] | 1.4 ± 0.079 |
| FSFTEPAQKDSSVVSEP [YOR098C/NUP1] | 3.02 ± 0.097 |
| FSIFNYFKMFPASKHDK [RPC34] | 3.28 ± 0.19 |
| FSKAIEWDMLNVEEEQI [BRR2] | 2.71 ± 0.078 |
| FSKQCLISNAIYGKKTM [ECM29] | 1.15 ± 0.098 |
| FSRFVDQFIRHVLRGVE [YCG1] | 3.37 ± 0.25 |
| FSTNVKDEIVLSGNSVE [RPL9A] | 2.03 ± 0.13 |
| FTDENTIVLSLNVKCTR [RPC40] | 3.44 ± 0.14 |
| FTFGLTVVQVYDNGQVF [RPP0] | 1.26 ± 0.09 |
| FTIQSFVSSLSNTSTLK [BRR2] | 1.83 ± 0.05 |
| FTIVSLVQLKKFSDLKF [YML103C/NUP188] | 2.37 ± 0.17 |
| FTKPPANETDKRPTPPS [YOR098C/NUP1] | 3.03 ± 0.043 |
| FTRPLFVLLEIEPVTKV [YCS4] | 1.94 ± 0.062 |
| FTTLLESKQDGLSILFL [YML103C/NUP188] | 2.53 ± 0.097 |
| FVAKLAAQIFGSYNAFE [COR1] | 1.68 ± 0.043 |
| FVDDTNVYRVTVHKTFE [PRP8] | 2.68 ± 0.087 |

| Sequence | protein stability index |
| --- | --- |
| FVIPALPAAVSKSLQES [RPC82] | 1.8 ± 0.1 |
| FVVPTFGQDVSPMINST [SNM1] | 2.94 ± 0.084 |
| FVWLSSEENIGSGLLKL [SWI1] | 3.3 ± 0.098 |
| FYDIRSLLERHIPRLIP [YJL039C/NUP192] | 2.79 ± 0.049 |
| FYVPQARNVTFDSLRNF [GRR1] | 2.04 ± 0.08 |
| GAASNRTKFVRSLVREI [RPL36A] | 3.22 ± 0.27 |
| GAGIQIIMQADLALKMG [FAS2] | 1.84 ± 0.094 |
| GAGSAFGFSSSGTAATG [YOR098C/NUP1] | 3.47 ± 0.2 |
| GAHGYSGFYTFSLLDHH [PRE1] | 2.94 ± 0.19 |
| GAHLGRFVIWTEAAFTK [RPL4A] | 2.87 ± 0.21 |
| GAIDEALEEAKLSDNIS [YDL116W/NUP84] | 3.17 ± 0.11 |
| GAKPEEKKDDNSSKPAF [YJL041W/NSP1] | 3.29 ± 0.12 |
| GAKQTQGGAMNKKSEQA [SRP72] | 2.77 ± 0.067 |
| GALKGASDGGLYVPHSE [RPL5] | 1.91 ± 0.083 |
| GCKNGSFTLLNQLSQTN [NUT1] | 2.86 ± 0.12 |
| GDFLDFQVHERLAPLIK [ARP7] | 3.29 ± 0.16 |
| GDVGKNHITEFPSIPLP [RPC31] | 3.21 ± 0.087 |
| GEANKHHWEDLQKRVIE [RPN5] | 2.98 ± 0.26 |
| GEDSTKPLGPCDVFWVQ [POP1] | 3.12 ± 0.094 |
| GEKIDSNKPIFLFAPEL [SWI1] | 2.62 ± 0.1 |
| GEPEAGNKALEDEEEFS [RPC34] | 3.18 ± 0.13 |
| GESEKSSDVDMDDEEWR [RPC53] | 3.7 ± 0.22 |
| GEVMKELSEEKYIVKAS [RPT4] | 3.25 ± 0.061 |
| GFGILEDGMIIDVNLNF [RRP40] | 3.08 ± 0.089 |
| GFGLVYNSVAEAKKFEP [RPS24A] | 3.22 ± 0.1 |

| Sequence | protein stability index |
| --- | --- |
| GFINQKNLKPQEQLKNV [YIL149C/MLP2] | 3.09 ± 0.11 |
| GFKWLNKLDEYHGLYTN [LIN1] | 1.81 ± 0.056 |
| GFYQIKKIVDSKKLNLK [YMR129W/POM152] | 3.11 ± 0.12 |
| GGFTAYGGADYGEATSP [RPO21] | 1.79 ± 0.093 |
| GGGWDNVDQTKTQCPNY [RPC11] | 3.47 ± 0.13 |
| GGGYFSAAGMTAAIDSV [FAS1] | 3.11 ± 0.15 |
| GGKAGSAAKASQSRSAK [HTA1] | 3.17 ± 0.072 |
| GGNSTQNTSNMNAGGLF [YGR119C/NUP57] | 3.26 ± 0.093 |
| GGQHHHRINMDKYHPGY [RPL28] | 3.23 ± 0.1 |
| GGSSDTADKIRIHAKNF [GAL11] | 1.67 ± 0.066 |
| GGVPTTSFGQPQSAPNQ [YOR098C/NUP1] | 2.33 ± 0.071 |
| GHRADVGGQFSKVQFDA [REC8] | 3.25 ± 0.085 |
| GHSQFTSHYQNYHPNAS [RPN4] | 2.56 ± 0.049 |
| GIDLAYNMYDAYGNWFN [PRP8] | 2.94 ± 0.049 |
| GIDPTRIYTNSFIDIME [RPO21] | 2.64 ± 0.048 |
| GIFGMDFYVVMNRPGAR [RPL11A] | 1.8 ± 0.057 |
| GIGSLTDLMSIVQELLD [RPC34] | 3.49 ± 0.17 |
| GIKLALDPNLITLALSS [SRB4] | 2.21 ± 0.052 |
| GINSPLSSVALRSDFYI [YJL039C/NUP192] | 2.45 ± 0.15 |
| GIPPPYDKKKRVVVPQA [RPL16B] | 1.83 ± 0.046 |
| GIPTDKGPRFRKLTSQE [PRE8] | 3.14 ± 0.12 |
| GIQEVVHNTNSFIISSL [NUT1] | 2.12 ± 0.074 |
| GITYRREDMPFTAEGIV [RPB2] | 2.52 ± 0.096 |
| GIVLEKLGIESKQPNSA [RPS23A] | 2.05 ± 0.071 |
| GKELDSLDLNNLELGGL [PGD1] | 3.08 ± 0.12 |

| Sequence | protein stability index |
| --- | --- |
| GKEVEVLMETKNTQSPQ [SNU114] | 3.19 ± 0.22 |
| GKGDNDNGLGPLKYAPH [SWI3] | 2.69 ± 0.058 |
| GKGLQSAIDVLDPLTKD [RPN2] | 2.28 ± 0.069 |
| GKHSQEQNSSSAKPSQI [SIR4] | 2.97 ± 0.067 |
| GKIDEAADILCELQVET [RPN5] | 3.06 ± 0.12 |
| GKIQENIPFWKHVGFEL [SRP72] | 2.65 ± 0.053 |
| GKLAKPRQLHNTHWGLV [RPB2] | 2.85 ± 0.082 |
| GKMIELISGKAGVLNGT [RET1] | 2.62 ± 0.079 |
| GKTNIALLTVLKALSHH [BRR2] | 2.19 ± 0.058 |
| GKTSFFQALGVPTKIAR [RPP0] | 3.24 ± 0.1 |
| GLFDSFTNGVLAVTNLL [YML031W/NDC1] | 2.64 ± 0.14 |
| GLIMLNLQPASVINNYL [NUT1] | 1.71 ± 0.063 |
| GLKFASFIFQYYGLVID [PRP8] | 1.73 ± 0.2 |
| GLKRSQLDEFKNKYLKD [SWP82] | 3.11 ± 0.13 |
| GLMKSYKIPKVMKDIYK [ESC2] | 3.15 ± 0.27 |
| GLNSDAEEVRNFALTTL [ECM29] | 2.84 ± 0.14 |
| GLNWLISLHENKLSGIL [ISW2] | 2.05 ± 0.056 |
| GLSILFLTGQFASNKKI [YML103C/NUP188] | 2.36 ± 0.068 |
| GLSMLAKLKELAEDVDD [RPC31] | 2.92 ± 0.079 |
| GLSVTQKVFVRSRNGGA [DIS3] | 1.46 ± 0.071 |
| GLVNPKTVQSMTQRAIQ [SWI3] | 3.25 ± 0.14 |
| GMLAMASLHSKELTRIP [MED4] | 2.18 ± 0.14 |
| GMNNASAGLFGSKPAGG [YGL172W/NUP49] | 3.23 ± 0.086 |
| GMYALRERRIHVTQEDF [RPT6] | 1.81 ± 0.074 |
